What was measured:
O=C(O)CNCP(=O)(O)O = experiment: Standard spectrophotometric kcat and KM determination (Example 7); type: biochemical; settings: other: 20 mM HEPES pH 6.8, 10% ethylene glycol, 0.2 mM acetyl CoA, about 23° C.
Description: KM was calculated from the initial reaction rates obtained from concentrations of glyphosate ranging from 0.125 to 10 mM, using the Lineweaver-Burke transformation of the Michaelis-Menten equation. kcat/KM was determined by dividing the value determined for kcat by the value determined for KM.

[1] = Transfer of the propionyl group from propionyl CoA to glyphosate, DTNB detection; type: biochemical; settings: 1 mM propionyl CoA, 5 mM glyphosate or no glyphosate, 30 minutes
Description: The ability of GAT variants (B6 (SEQ ID NO:7), 0—6D10 (SEQ ID NO:448), 17-15H3 (SEQ ID NO:601), and 20-8H12c (SEQ ID NO:817)) to transfer the propionyl group from propionyl CoA to glyphosate was tested in reaction mixtures containing 5 mM glyphosate or no glyphosate. Propionyl CoA was present at 1 mM. After 30 minutes the reactions were terminated and the presence of free […] was determined by the addition of DTNB.

soybean plants = experiment: T0 soybean greenhouse glyphosate spray, plant discoloration scores; type: in vivo
Description: Soybean plants expressing GAT variant transgenes were produced using the method of particle gun bombardment (see Klein et al. (1987) Nature 327:70-73) using a DuPont Biolistic PDS1000/He instrument. The selection agent used during the transformation process was hygromycin. Either the hygromycin selectable marker gene remained in the transgenic events or the hygromycin gene was excised by methods known in the art. DNA fragments were prepared with a synthetic constitutive promoter, a GAT variant and PinII terminator. The selectable marker gene, comprising the 35S CaMV promoter, HPT gene and NOS terminator, was cobombarded with the GAT gene variant as described above. Bombarded soybean embryogenic suspension tissue was cultured for one week in the absence of selection agent. Embryogenic suspension tissue was placed in liquid selection medium for 6 weeks. Putative transgenic suspension tissue was sampled for PCR analysis to determine the presence of the GAT gene. Putative transgenic suspension culture tissue was maintained in selection medium for 3 weeks to obtain enough tissue for plant regeneration. Suspension tissue was matured for 4 weeks using standard procedures; matured somatic embryos were desiccated for 4-7 days and then placed on germination induction medium for 2-4 weeks. Germinated plantlets were transferred to soil in cell pack trays for 3 weeks for acclimatization. Plantlets were potted to 10-inch pots in the greenhouse for evaluation of glyphosate resistance.
To determine the level of glyphosate resistance of transgenic soybeans expressing the GAT variant transgenes, T0 plants were sprayed with glyphosate (Roundup ULTRA MAX™) in the greenhouse. Plant resistance levels were evaluated by […] • 7=minor leaf/stem discoloration • 5=worse leaf/stem discoloration • 3=severely discolored plant or dying plant • 1=dead plant
One to four plants were sent to the greenhouse from each independent transgenic event. An additional 1-2 plants per event were grown in controlled environment growth chambers for seed production and were not sprayed with glyphosate. The greenhouse plants were sprayed at 1×, 2× or 4× glyphosate (1× glyphosate=26 ounces/acre of RoundUp ULTRA MAX™) 3-4 weeks after transfer to soil. The T0 plant discoloration scores with 2× and 4× spray rates are shown in Table 10 and Table 11, respectively.

[2] = type: physicochemical; settings: buffer, pH 7.2
Description: The half lives of several GAT polypeptides were also measured at 37.5° C. according to the following procedure. GAT polypeptides 401 (SEQ ID NO: 6), 17-15H3 (SEQ ID NO: 601), 20-8H12 (SEQ ID NO: 739), 22-13B12 (SEQ ID NO: 781), 22-15B4 (SEQ ID NO: 946) and 22-18C5 (SEQ ID NO: 795) were incubated in a matrix of 25 mM Hepes, pH 7.2, 10 mM KCl and 10% methanol (“HKM”). At various timepoints, aliquots were withdrawn and assayed in triplicate at 22° C. using the continuous spectrophotometric assay described in Example 7 using saturating concentrations of glyphosate (20 mM for 401, 5 mM for the rest) and AcCoA (167 uM). The standard error at each time point averaged about 2.9%. GAT activity was plotted as a function of incubation time and the data was fitted to a curve for exponential decay (y=e^−x), where y is enzyme activity and x is time in hours, from which half life was calculated.

[3] = GAT activity with substrate L-serine (DTNB); type: biochemical
Description: (§1) GAT activity of several GAT polypeptides of the present invention was evaluated with respect to a number of amino acid substrates. The GAT polypeptide, AcCoA and amino substrate were incubated in 25 mM Hepes, pH 6.8, 10% ethylene glycol in the wells of a 96-well polystyrene plate. After 30 minutes, the reactions were stopped by the addition of 30 μl of 10 mM 5,5′-dithiobis-2-nitrobenzoate (DTNB) in 500 mM Tris, pH 7.5. After 2 minutes, absorbance was read at 412 nm in a Spectramax Plus plate reader (Molecular Devices, Sunnyvale, Calif.).

[4] = GAT activity with substrate L-aspartate (DTNB); type: biochemical
Description: as §1

[5] = GAT activity with other L-amino acid substrates (DTNB); type: biochemical
Description: as §1

tobacco plants = experiment: Herbicide spray tests of GAT expressing tobacco plants; type: in vivo, Nicotiana tabacum
Description: Tobacco shoots generated as described in EXAMPLE 9 were excised from the explants and transferred to basal root induction (BRI) medium composed of half-strength Murashige and Skoog (MS) medium, pH 5.7, with 1.5% sucrose, 0.3% Gelrite, 0-200 uM glyphosate and 400 ug/ml Timentin. Rooted plants and axillary shoots were clonally propagated by cutting the stem and transferring it to fresh BRI medium until the desired number of clones was obtained. Rooted plants were carefully removed from the solid medium. Prior to placing the plants into small pots of soil, the roots were washed to remove any remaining Gelrite. A protective plastic cover was kept over the plants for at least one week until the plants were well established.
To determine if GAT expressing tobacco plants could tolerate simulated field rate sprays of glyphosate, clonal lines of several events per GAT variant were tested. A typical test was set up as follows: One clone from each event was sprayed with 1 ml of solution containing the isopropylamine salt of glyphosate (Sigma P5671) and 0.125% Triton X-100, pH 6.8 such that the amount of active ingredient sprayed was equivalent to that present in commercial glyphosate products. For example, to achieve 32 oz/acre (1×) of herbicide containing 40% active ingredient (“ai”), 2.4 ul of 40% ai formulation was diluted into 1 ml water and sprayed on a plant in a 4-inch square pot (16 in^2). A mock application (0×) with surfactant only was also included. In some cases a second spray was applied 1-4 weeks later. Plants were kept in controlled growth rooms at 25° C. and 70% humidity with 16 hr light.
Seed-grown wild type plants were also sprayed. […] All 0× plants were healthy, including the non-GAT control plants. Three weeks later all of the surviving plants were sprayed with an 8× dose.

[6] = 10 days after 2X glyphosate (1× = 26 ounces/acre)

Molecule: GAT polypeptide (glyphosate-N-acetyltransferase), SEQ ID NO:457 (Bacillus licheniformis DSM 13 = ATCC 14580; A28V/E119K/E65Q/E67Q/E68K/G37R/I132T/I135V/I15L/I2L/K101R/K144R/K58Q/L145I/L97I/R18K/R92K/T89S/V114A/Y130F/Y45F)
- Km (O=C(O)CNCP(=O)(O)O): 100 µM
- kcat (O=C(O)CNCP(=O)(O)O): 1.97 s⁻¹

Molecule: GAT polypeptide (glyphosate-N-acetyltransferase), SEQ ID NO:300 (Bacillus licheniformis DSM 13 = ATCC 14580; A39T/E119K/E67Q/E68K/H57N/I132T/I135V/K58Q/L35S/S62P/V114A)
- Km (O=C(O)CNCP(=O)(O)O): 650 µM
- kcat (O=C(O)CNCP(=O)(O)O): 4.93 s⁻¹

B1: 20-8H12c: GAT variant, SEQ ID NO:817 (protein)
chain: MIEVKPINAEDTYELRHRVLRPNQPIEACIFESDLMRGAFHLGGFYGGRLISVASFHQAEHSELQGQKQYQLRGMATLEGYREQKAGSSLVKHAEEILRKRGADLLWCNARTSASGYYKKLGFSEQGEVFDTPPVGPHILMYKRIT
modifications: 20-8H12c
- glyphosate-dependent hydrolysis of propionyl CoA [1]: showed glyphosate-dependent hydrolysis of propionyl CoA

B2: 18-28D9c: GAT transgene, SEQ ID NO:824 (nucleic acid)
DNA: ATGATAGAGGTGAAACCGATTAACGCAGAGGATACCTATGAACTAAGGCATAGAATACTCAGACCAAACCAGCCGATAGAAGCGTGTATGTTTGAAAGCGATTTACTTCGTGGTGCATTTCACTTAGGCGGCTTTTACAGGGGCAAACTGATTTCCATAGCTTCATTCCACCAGGCCGAGCACTCGGAACTCCAAGGCCAGAAACAGTACCAGCTCCGAGGTATGGCTACCTTGGAAGGTTATCGTGAGCAGAAAGCGGGATCAACTCTAGTTAAACACGCTGAAGAAATCCTTCGTAAGAGGGGGGCGGACATGCTTTGGTGTAATGCGAGGACATCCGCCTCAGGCTACTACAAAAAGTTAGGCTTCAGCGAGCAGGGAGAGATATTTGACACGCCGCCAGTAGGACCTCACATCCTGATGTATAAAAGGATCACATAA
modifications: Synthetic nucleic acid sequence; CDS (1)...(441); 18-28D9c
- % EVENTS @ 3-6 (soybean plants; 10 days after 2X glyphosate): 74% (23)
- % EVENTS @ 7-8 (soybean plants; [6]): 8% (3)
- % EVENTS @ 3-6 (soybean plants; 10 days after 4X glyphosate): 43% (10)
- % EVENTS @ 7-8 (soybean plants; 10 days after 4X glyphosate): 8% (2)

B3: 401: native GAT polypeptide corresponding to SEQ ID NO: 6 (protein, listed as Bacillus licheniformis)
chain: MIEVKPINAEDTYEIRHRILRPNQPLEACMYETDLLGGAFHLGGYYRGKLISIASFHKAEHSELEGEEQYQLRGMATLEGYREQKAGSTLIRHAEELLRKKGADLLWCNARTSVSGYYEKLGFSEQGEVYDIPPIGPHILMYKKLT
modifications: ST401 GAT
- Half-life [2]: 14 h
- activity with L-serine compared with glyphosate [3]: about 4.7 times
- kcat/KM % of glyph ([3]; Substrate Serine): 471%
- activity with L-aspartate compared with glyphosate [4]: about as active
- kcat/KM % of glyph ([4]; Substrate Aspartate): 85.5%
- number of amino acids with detectable activity, in addition to glyphosate [5]: 12
- activity relative to activity towards glyphosate ([5]; L-alanine, 1 mM): 33%
- activity relative to activity towards glyphosate ([5]; L-asparagine, 1 mM): 27%
- activity relative to activity towards glyphosate ([5]; L-cysteine, 1 mM): 50%
- activity relative to activity towards glyphosate ([5]; L-glutamate, 1 mM): 51%
- activity relative to activity towards glyphosate ([5]; L-glutamine, 1 mM): 32%
- activity relative to activity towards glyphosate ([5]; L-histidine, 1 mM): 10%
- activity relative to activity towards glyphosate ([5]; L-threonine, 1 mM): 250%
- activity relative to activity towards glyphosate ([5]; L-tyrosine, 1 mM): 18%
- activity relative to activity towards glyphosate ([5]; L-valine, 1 mM): 12%
- activity on N-methyl derivatives of amino acids ([5]; N-methyl derivatives of L-aspartate (2 mM), L-alanine (10 mM) and glycine (sarcosine, 10 mM)): No detectable activity
- activity relative to activity towards glyphosate ([5]; glycine, 1 mM): 21%
- activity relative to activity towards glyphosate ([5]; the other protein amino acids, either undetected or less than 3%): less than 3%

B4: 0—5D3: evolved GAT gene, SEQ ID NO:193 (nucleic acid)
DNA: ATGCTAGAGGTGAAACCGATTAACGCAGAGGATACCTATGAACTAAGGCATAGAATACTCAGACCAAACCAGCCGATAGAAGCGTGTATGTATGAAAGCGATTTACTTCGTGGTGCATTTCACTTAGGCGGCTATTACAGGGGCAAACTGATTTCCATAGCTTCATTCCACCAGGCCGAGCACTCAGAACTCCAAGGCCAGAAACAGTACCAGCTCCGAGGTATGGCTACCTTGGAAGGTTATCGTGAGCAGAAAGCGGGATCGAGTCTAATTAAACACGCTGAAGAAATTCTTCGTAAGAGGGGGGCGGACTTGCTTTGGTGTAATGCGCGGACATCCGCCTCAGGCTACTACAAAAAGTTAGGCTTCAGCGAGCAGGGAGAGATATTTGAAACGCCGCCAGTAGGACCTCACATCCTGATGTATAAAAGGATCACATAA
modifications: Synthetic nucleic acid sequence; 0_5D3
- outcome two weeks after glyphosate spray (tobacco plants; 0.5, 2 or 4× glyphosate (1× = 32 oz/acre of 40% ai), clonally propagated events, average of 5 leaves): survived the spraying procedure without signs of glyphosate damage
- outcome after second spray with an 8× dose (tobacco plants; 8× glyphosate three weeks later): survived
- % EVENTS @ 3-6 (soybean plants; 10 days after 2X glyphosate): 11% (3)
- % EVENTS @ 7-8 (soybean plants; [6]): 15% (4)

Source: patent US7666644B2, “Glyphosate-N-acetyltransferase (GAT) genes” (Verdia, Inc., priority 2004, dated 2010)
